Test results published in the nanobody polyreactivity screen of Harvey et al. (2022).

Experiment: yeast display, Sf9 membrane polyspecificity reagent, FACS + sequencing; frameworks hold sequencing errors
Procedure, shortened: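 Nanobodies from a synthetic yeast display library (Saccharomyces cerevisiae BJ5465), induced 36–48 hours with galactose, were stained 1 hour at 4 °C with 10% biotinylated, detergent-solubilized Sf9 membrane reagent, enriched on streptavidin microbeads, then FACS-sorted. Anti-HA (expression) and streptavidin (reagent binding) fluorescence set low and high (top ~1%) gates. Polyreactivity labels come from the gate of origin. Genes were colony-PCR amplified, MiSeq 2 × 250 sequenced and filtered by CDR length.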

Question: For “QVQLVESGGGLVQAGGSLRLSCAATGSTFTAYAMSWYRQAPGKESELVAAIRRIGGDTYYADSVKGLFTISRDNAKNTVYLQMNSLKPEDTAVYYCAAFRWRSLQYWYHSMDLWGQGSQVTVSS”, which “polyreactivity (PSR sort gate)” value is on record?
Answer: Its value is “low polyreactivity”.

Question: With “QVQLVESGGGLVQAGGSLRLSCAATGSTFTFNAMGWYRQAPGKEREFVAAITASGGRTYYADSVKGRFTISRDNAKNTVYLQMNSLKPEDTAVYYCAADACLLGPGDFNYWGQGTQVTVSS” as the sequence, how does the “polyreactivity (PSR sort gate)” value read?
Answer: The value was “low polyreactivity”.

Question: For “QVQLVESGGGLVQAGGSLRLSCAATGSTYKYYAMGWYRQAPGKERELVAAITKSGGRTYYSDSVKGRLTISRDNAKNTVYLQMNSLKPEDTAVYYCATVTSHVDDEFDYWGQGTQVTVSS”, which “polyreactivity (PSR sort gate)” value is on record?
Answer: Its value is “high polyreactivity”.

Question: Which “polyreactivity (PSR sort gate)” value does the source give for “QVQLVESGGGLVQAGGSLRLSCAATGTFRRYAMGWYRQAPGKERELVAAITRNGGSTYYADSVKGRFTISRDNAKNTVYLQMNSLKPEDTAVYYCAAGLFWGGFRQWTDHHFDCDYYWGQGTQVTVSS” here?
Answer: Its value is “high polyreactivity”.

Question: For “QVQLVESGGGLVQAGGSLRLSCAATGYTFFFYAMGWYRQAPGKEREFVAASTWRGDSTYYADSVKGRFTISRDNAKNTVYLQMNSLKPEDTAVYYCAADPGFTWSRRMDYWGQGTQVTVSS”, which “polyreactivity (PSR sort gate)” value is on record?
Answer: The value was “low polyreactivity”.

Question: With “QVQLVESGGGLVQAGGSLRLSCAATRSTIQANTIGWYRQAPGKERALVAAISIRGANTYYADSVKGRLTISRDNAKNTFYLQMNSLKREDSAVYYCATRVGKYSLSLDYWGQGTQVTVSS” as the sequence, how does the “polyreactivity (PSR sort gate)” value read?
Answer: Its value is “high polyreactivity”.

Question: With “QVQLVESGGGLVQAGGSLRLSCAAWSIFYLNAMGWYRQAHGKERELVAAISSAGSTYYADSVKGRFTISRDNAKKTVYLHMNSLKPEDTAVYYCAAYWYDSPGVTEIWYDYWGQGTQVTVSS” as the sequence, how does the “polyreactivity (PSR sort gate)” value read?
Answer: The value was “low polyreactivity”.

Question: For “QVQLVESGGGLVQAGGSLRLSCAAWSIFYLNAMGWYRQAPGKERELVAAISSAGSTYYADSVKGRFTISRDNAKNTVYLQLNSLKPEDTAVYYCAAYWYDSPGVTEIWYDYWGQGTQVTVSS”, which “polyreactivity (PSR sort gate)” value is on record?
Answer: Its value is “low polyreactivity”.

Question: For “QVQLVESGGGLVQAGGSLRLSCAAYGFTFWRNAMGWYIQAPGKERELVAAISASGGSTYYASSVKGRFTISRDNAKNTVYLQMNSLKPEDTAVYYCNAGEWAISEWGWVVDYDYWGQGTQVTVSS”, which “polyreactivity (PSR sort gate)” value is on record?
Answer: Its value is “low polyreactivity”.

Question: For “QVQLVESGGGLVQAGGSLRLSCAAYGFTFWWYAMGWYRQAPGNERELVAAISASGASTYYADSVKGRFTISRDNAKNTVYLQMNSLKPEDTAVYYCAVVGLLRLYYWGQGTQVTVSS”, which “polyreactivity (PSR sort gate)” value is on record?
Answer: Its value is “high polyreactivity”.

Question: With “QVQLVESGGGLVQAGGSLRLSCAAYGIIFRYYAMGWYRQAPGKERELVAAITASGGSTYYADSVKGRFTISRDHAKNTVYLQMNSLKPEDTAVYFGAAGSYFQHLIGYSTVSYGRNYWGQGTQVTVSS” as the sequence, how does the “polyreactivity (PSR sort gate)” value read?
Answer: Its value is “high polyreactivity”.

Question: For “QVQLVESGGGLVQAGGSLRLSCAAYGITFAPYAMGWYRQAPGKERELVAGINTGGSTYYADSVKGRFTISRDNAKNTVYLQMNSLKPEDTAVYYCATESYPADHDIPGSDYWGQGTQVTVSS”, which “polyreactivity (PSR sort gate)” value is on record?
Answer: The value was “low polyreactivity”.

Question: For “QVQLVESGGGLVQAGGSLRLSCAAYGITFRAYAMGWYRQAPGKEREFVASISGSGGSTYSADSVKGRFTISRDNAKNTVYFQMNSLKPEDTAVYYCATRRWGLATPTRYDYWGQGTQVTVSS”, which “polyreactivity (PSR sort gate)” value is on record?
Answer: The value was “high polyreactivity”.

Question: Which “polyreactivity (PSR sort gate)” value does the source give for “QVQLVESGGGLVQAGGSLRLSCAAYGITFSGYDMGWYRQAPGKERELVADITISTGSTYYADSVKGRFTISRDNAKNTVYLEMNSLKAEDTAVYYWNADSWFPDHFSYYGPYDYWGQGSQVTVSS” here?
Answer: The value was “low polyreactivity”.

Question: For “QVQLVESGGGLVQAGGSLRLSCAAYGITFSKNAKGWYRQAPGKERELVAAISRGGSSYYADSVKGRFTISRDNAKNTVYLQMNSLKPEDTAVYYCSAGWLRKYYYWGQGTQVTVSS”, which “polyreactivity (PSR sort gate)” value is on record?
Answer: Its value is “low polyreactivity”.

Question: With “QVQLVESGGGLVQAGGSLRLSCAAYGLTLGRNAMGWYRQAPGKERELVAAITQSGGSTYYADSVKGRFTISRDNAKITVYLQMNSLKPEDTAVFYGAAQYSWGHYYTFDYWGQGTQVTVSS” as the sequence, how does the “polyreactivity (PSR sort gate)” value read?
Answer: Its value is “low polyreactivity”.
